Test results from the nanobody polyreactivity screen of Harvey et al. (2022).

Test: yeast display, Sf9 membrane polyspecificity reagent, FACS + sequencing; frameworks hold sequencing errors
How it was run: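 Sorting gates, low and high (top ~1%), were placed on anti-HA fluorescence to track expression and on streptavidin fluorescence to track reagent binding. A clone's polyreactivity label is taken from the gate it came out of. The reagent was 10% biotinylated, detergent-solubilized Sf9 membrane, applied for 1 hour at 4 °C to galactose-induced yeast display cells.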

| Sequence | polyreactivity (PSR sort gate) |
| --- | --- |
| QVQLVESGGGLVQAGGSLRLSCAASGFTLLPYAMGWYRQAPGKERELVAAISRRGVSTYYADSVKGRFTISRDNAKNTVYLQMNSLIPEDTSVYYWASRYFTGYGLRTQFYFWGQGTQVTVSS | high polyreactivity |
| QVQLVESGGGLVQAGGSLRLSCAASGFTLLWNAMGWYRQAPGKERELVAAINKSGGSTYADSVKGRFTISRDNAKNTVYLQMNSLKPEDTAVYYCAAEVDYSYWPEYARKYYYWGQGTQVTVSS | low polyreactivity |
| QVQLVESGGGLVQAGGSLRLSCAASGFTLPANGMGWYRQAPGKERQLVAAISFIAGSTYYADSVKGRFTISRDNAKNTVYLQMKSLKPEDTAVYYCATQFPPSTFYDYWGQGTQVTVSS | low polyreactivity |
| QVQLVESGGGLVQAGGSLRLSCAASGFTLPLYAMGWYRQAPGKERELVATISSGGTTYYADSVKGRFTISRDNAKNTVYLEMNCLKPEDTGVYYCAAGGTFFHRFYYYYRSDYWGQGTQVTVSS | high polyreactivity |
| QVQLVESGGGLVQAGGSLRLSCAASGFTLRRYAMGWYRQAPGKERELVATITSGGTTDYADSVKGRFTISRDNAKNTVYLQMNSLKPEDTAVYYCAAYRRGAYYYWGQGTQVTVSS | high polyreactivity |
| QVQLVESGGGLVQAGGSLRLSCAASGFTLSASAMGWYRQAPGKERELVAGITYTGGRTYYADSVKGRFTISRDNAKNTVYFQMNSLKPEVTAVYYCNKAWSGYYKYGYWGQGTQVSVSS | low polyreactivity |
| QVQLVESGGGLVQAGGSLRLSCAASGFTLSSNPMGWNRQEPGKETELVAAISFNSTSTYYADSVKGRFTISRDNAKNTVYLQMKSLNPEDTAVYYCAADVPRVQSEPEYDYWGQGTQVTVSS | low polyreactivity |
| QVQLVESGGGLVQAGGSLRLSCAASGFTLSWYAMGWYRQAPGKERELVATISRGGITYYADSVKGRFTLSRDNANNTVYVQMNSLKPEDTAVYYCAADYRYGWYRYDYWGQGTQVTVSS | high polyreactivity |
| QVQLVESGGGLVQAGGSLRLSCAASGFTLTLRYAMGWYRQAPGKERELVAAISSGGRTKYADSVKGRFTISRDNAKNTVYLQMNSLKPEDTAVYYCAADLYDPYHVYGYNYWGQGTQVTVSS | low polyreactivity |
| QVQLVESGGGLVQAGGSLRLSCAASGFTLTRNAMGWYRPAPGKERELVAAISWSGGTTYYADSVKGRFTISRDNAKNTVYLQMNSLKPEDTAVYYCAADSVKYGGDYWGQGTQVTVSS | high polyreactivity |
| QVQLVESGGGLVQAGGSLRLSCAASGFTLWLYAMGWSRQAPGKERALVATISYRGDSTYYADSVKGRFTISRDNAKNTVYLQMNSLNPEDTAVYYCARRYTHTGRYYYWGQGTQVTVSS | high polyreactivity |
| QVQLVESGGGLVQAGGSLRLSCAASGFTLWLYAMGWYRQAPGKERELVASISWAGGSTYYADSVKGRFTISRDNAKNTVYLQMNSLKPEDTAVYYCAASRARTRSAYNYSGQGTQVTVSS | high polyreactivity |
| QVQLVESGGGLVQAGGSLRLSCAASGFTLWYNGMGWYRQAPGKERELVATISSRGGGSTYYADSVKGRFTISRDNAKNTVYLQMNSLKPEETAVYYCAADAYYLVPTEGDYWGQGTQVTVSS | low polyreactivity |
| QVQLVESGGGLVQAGGSLRLSCAASGFTLYFYAMGWYRQAPGKERELVATITGSGGSTTYADSVKGRFTISRDNAKNTVYLQMNRLKPEDTAVSYCAAVRVVRASRYQTYHWQPGYCYWGQGTQVTVSS | high polyreactivity |
| QVQLVESGGGLVQAGGSLRLSCAASGFTLYPYAMGWYRPAPGKERELVAAISGSGGSTYYADSVKGRFTISRDNAKNTVYLQMNSLKPEDTAVYYCAARGPQQWWWDDDYWGQGTQVTVSS | high polyreactivity |
| QVQLVESGGGLVQAGGSLRLSCAASGFTLYSYAMGWYRQAPGKERELVAAIRRRGASTYYADSVKGRFTISRDNAKNTVYLQMNSLKPEDTAVYYCAADAKYPDDDYWGQGTQVTVSS | high polyreactivity |
| QVQLVESGGGLVQAGGSLRLSCAASGFTLYSYAMGWYRQAPGKETELVAAITRSGGITYYADSVKGRFTISRDNAKNTVYLQMNSLKPEDTAVYYCAALYLATGVDKAFDSWGQGTQVTVSS | high polyreactivity |
